T1: recombinant human IL-23R/Fc chimera (R&D Systems) (human, UniProt Q5VWK5 24-355)
T1 construct: Bought; also called rhIL23RFc
T1 sequence (looked up): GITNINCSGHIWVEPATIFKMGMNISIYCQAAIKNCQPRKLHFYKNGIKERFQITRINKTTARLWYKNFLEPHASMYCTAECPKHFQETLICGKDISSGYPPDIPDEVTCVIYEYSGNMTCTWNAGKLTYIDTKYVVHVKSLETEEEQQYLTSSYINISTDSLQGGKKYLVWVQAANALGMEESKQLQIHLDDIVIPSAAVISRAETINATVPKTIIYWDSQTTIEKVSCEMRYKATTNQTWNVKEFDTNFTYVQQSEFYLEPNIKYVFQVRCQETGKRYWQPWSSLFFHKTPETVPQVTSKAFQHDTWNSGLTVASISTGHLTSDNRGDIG


These binders were tested against T1, recombinant human IL-23R/Fc chimera … (assay: competition ELISA vs IL-23).
Description: Assays were performed generally as follows. Individual wells in Immulon HB2 plates were incubated overnight at 4° C. with 100 μL PBS containing 100 ng of an anti-human IgG Fc (R&D MAB 110 clone 97924). Plates were washed five times with PBS/0.05% Tween 20, and wells were incubated for 1.5 h at RT with 100 μL each of PBS containing 50 ng of recombinant human IL-23R/Fc. […] Competitor was included at a final concentration of 1 μg/mL. After incubation, plates were washed as described and wells were incubated for 40 min at RT with 100 μL each of PBS containing a 1:5000 dilution of streptavidin-HRP conjugate (Pierce catalog no. 21130). After washing, wells were incubated with 100 μL each of TMB (BioFX Lab catalog no. TMBH-1000-0) for up to 30 min at RT. Reactions were stopped with an equal volume of 0.2 M sulfuric acid.

| Binder | Ratio IC50 to 056-53.H4E IC50 |
| --- | --- |
| 105-08-1D10 ATRIMER complex (designed binder) EPPTQKPKKIVNAKKDVVNTKMFEELKSRLDTLAQEVALLKEQQALQTVCLKGTKVHMKCFLAFTQTKTFHEASEDCISRGGTLSTPQTGSENDALYEYLRQSVGNEAEIWLGLNGSARTGTWVDMTGARIAYKNWETEITAQPDGGWGYFGENCAVLSGAANGKWFDKRCRDQLPYICQFGIV | 5.5 |
| 105-08-2C1 ATRIMER complex (designed binder, not shown: small tags and cut ends) EPPTQKPKKIVNAKKDVVNTKMFEELKSRLDTLAQEVALLKEQQALQTVCLKGTKVHMKCFLAFTQTKTFHEASEDCISRGGTLSTPQTGSENDALYEYLRQSVGNEAEIWLGLNGSSLTDTWVDMTGARIAYKNWETEITAQPDGGWGYFGENCAVLSGAANGKWFDKRCRDQLPYICQFGIV | 3.6 |
| 105-08-1G12 ATRIMER complex (designed binder, Homotrimer (ATRIMER complex) of the one chain given.) EPPTQKPKKIVNAKKDVVNTKMFEELKSRLDTLAQEVALLKEQQALQTVCLKGTKVHMKCFLAFTQTKTFHEASEDCISRGGTLSTPQTGSENDALYEYLRQSVGNEAEIWLGLNGSLRTGTWVDMTGARIAYKNWETEITAQPDGGWGYFGENCAVLSGAANGKWFDKRCRDQLPYICQFGIV | 13.2 |
| 105-08-1D12 ATRIMER complex (designed binder, not shown: C-terminal tag: His/Myc (pANA4) or HA-StrepII (pANA10)) EPPTQKPKKIVNAKKDVVNTKMFEELKSRLDTLAQEVALLKEQQALQTVCLKGTKVHMKCFLAFTQTKTFHEASEDCISRGGTLSTPQTGSENDALYEYLRQSVGNEAEIWLGLNGSVLTDTWVDMTGARIAYKNWETEITAQPDGGFGYFGENCAVLSGAANGKWFDKRCRDQLPYICQFGIV | 4.6 |
| 105-08-2A1 ATRIMER complex (designed binder) EPPTQKPKKIVNAKKDVVNTKMFEELKSRLDTLAQEVALLKEQQALQTVCLKGTKVHMKCFLAFTQTKTFHEASEDCISRGGTLSTPQTGSENDALYEYLRQSVGNEAEIWLGLNGSMRTDTWVDMTGARIAYKNWETEITAQPDGGWGYFGENCAVLSGAANGKWFDKRCRDQLPYICQFGIV | 5 |
| 105-08-2C6 ATRIMER complex (designed binder) EPPTQKPKKIVNAKKDVVNTKMFEELKSRLDTLAQEVALLKEQQALQTVCLKGTKVHMKCFLAFTQTKTFHEASEDCISRGGTLSTPQTGSENDALYEYLRQSVGNEAEIWLGLNGSQRTDTWVDMTGARIAYKNWETEITAQPDGGWGYFGENCAVLSGAANGKWFDKRCRDQLPYICQFGIV | 3.6 |
| 105-08-1G9 ATRIMER complex (designed binder) EPPTQKPKKIVNAKKDVVNTKMFEELKSRLDTLAQEVALLKEQQALQTVCLKGTKVHMKCFLAFTQTKTFHEASEDCISRGGTLSTPQTGSENDALYEYLRQSVGNEAEIWLGLNGSPKTDTWVDMTGARIAYKNWETEITAQPDGGFGYFGENCAVLSGAANGKWFDKRCRDQLPYICQFGIV | 2.4 |
| 105-08-2C4 ATRIMER complex (designed binder, ATRIMER complex: homotrimer of three copies of this chain, joined by the tetranectin coiled coil, not shown: C-terminal tag: Myc/His (pANA4) or HA-StrepII (pANA10)) EPPTQKPKKIVNAKKDVVNTKMFEELKSRLDTLAQEVALLKEQQALQTVCLKGTKVHMKCFLAFTQTKTFHEASEDCISRGGTLSTPQTGSENDALYEYLRQSVGNEAEIWLGLNGSLLTNTWVDMTGARIAYKNWETEITAQPDGGFGYFGENCAVLSGAANGKWFDKRCRDQLPYICQFGIV | 2.9 |
| 105-08-1G2 ATRIMER complex (designed binder) EPPTQKPKKIVNAKKDVVNTKMFEELKSRLDTLAQEVALLKEQQALQTVCLKGTKVHMKCFLAFTQTKTFHEASEDCISRGGTLSTPQTGSENDALYEYLRQSVGNEAEIWLGLNGSSKTNTWVDMTGARIAYKNWETEITAQPDGGWGYFGENCAVLSGAANGKWFDKRCRDQLPYICQFGIV | 5.5 |
| 105-08-2B3 ATRIMER complex (designed binder, not shown: small tags and cut ends) EPPTQKPKKIVNAKKDVVNTKMFEELKSRLDTLAQEVALLKEQQALQTVCLKGTKVHMKCFLAFTQTKTFHEASEDCISRGGTLSTPQTGSENDALYEYLRQSVGNEAEIWLGLNGSAITNTWVDMTGARIAYKNWETEITAQPDGGWGYFGENCAVLSGAANGKWFDKRCRDQLPYICQFGIV | 3.4 |

Further lines, results first:

| Ratio IC50 to 056-53.H4E IC50 | Binder |
| --- | --- |
| 2.2 | 105-08-2G1 ATRIMER complex (designed binder) EPPTQKPKKIVNAKKDVVNTKMFEELKSRLDTLAQEVALLKEQQALQTVCLKGTKVHMKCFLAFTQTKTFHEASEDCISRGGTLSTPQTGSENDALYEYLRQSVGNEAEIWLGLNGSPKTHTWVDMTGARIAYKNWETEITAQPDGGFGYFGENCAVLSGAANGKWFDKRCRDQLPYICQFGIV |
| 5.3 | 105-08-2C9 ATRIMER complex (designed binder) EPPTQKPKKIVNAKKDVVNTKMFEELKSRLDTLAQEVALLKEQQALQTVCLKGTKVHMKCFLAFTQTKTFHEASEDCISRGGTLSTPQTGSENDALYEYLRQSVGNEAEIWLGLNGSTLTNTWVDMTGARIAYKNWETEITAQPDGGWGYFGENCAVLSGAANGKWFDKRCRDQLPYICQFGIV |
| 3.3 | 105-08-2C12 ATRIMER complex (designed binder, not shown: small tags and cut ends) EPPTQKPKKIVNAKKDVVNTKMFEELKSRLDTLAQEVALLKEQQALQTVCLKGTKVHMKCFLAFTQTKTFHEASEDCISRGGTLSTPQTGSENDALYEYLRQSVGNEAEIWLGLNGSQRTDTWVDMTGARIAYKNWETEITAQPDGGFGYFGENCAVLSGAANGKWFDKRCRDQLPYICQFGIV |
| 8.4 | 105-08-2C8 ATRIMER complex (designed binder) EPPTQKPKKIVNAKKDVVNTKMFEELKSRLDTLAQEVALLKEQQALQTVCLKGTKVHMKCFLAFTQTKTFHEASEDCISRGGTLSTPQTGSENDALYEYLRQSVGNEAEIWLGLNGSWLTDTWVDMTGARIAYKNWETEITAQPDGGWGYFGENCAVLSGAANGKWFDKRCRDQLPYICQFGIV |
| 9.1 | 105-08-2E12 ATRIMER complex (designed binder) EPPTQKPKKIVNAKKDVVNTKMFEELKSRLDTLAQEVALLKEQQALQTVCLKGTKVHMKCFLAFTQTKTFHEASEDCISRGGTLSTPQTGSENDALYEYLRQSVGNEAEIWLGLNGSGLTDTWVDMTGARIAYKNWETEITAQPDGGWGYFGENCAVLSGAANGKWFDKRCRDQLPYICQFGIV |
| 3.8 | 105-08-2G2 ATRIMER complex (designed binder) EPPTQKPKKIVNAKKDVVNTKMFEELKSRLDTLAQEVALLKEQQALQTVCLKGTKVHMKCFLAFTQTKTFHEASEDCISRGGTLSTPQTGSENDALYEYLRQSVGNEAEIWLGLNGSAITDTWVDMTGARIAYKNWETEITAQPDGGWGYFGENCAVLSGAANGKWFDKRCRDQLPYICQFGIV |
| 4.1 | 105-08-2D2 ATRIMER complex (designed binder) EPPTQKPKKIVNAKKDVVNTKMFEELKSRLDTLAQEVALLKEQQALQTVCLKGTKVHMKCFLAFTQTKTFHEASEDCISRGGTLSTPQTGSENDALYEYLRQSVGNEAEIWLGLNGSARTGTWVDMTGARIAYKNWETEITAQPDGGFGYFGENCAVLSGAANGKWFDKRCRDQLPYICQFGIV |
| 9.1 | 105-08-2C11 ATRIMER complex (designed binder) EPPTQKPKKIVNAKKDVVNTKMFEELKSRLDTLAQEVALLKEQQALQTVCLKGTKVHMKCFLAFTQTKTFHEASEDCISRGGTLSTPQTGSENDALYEYLRQSVGNEAEIWLGLNGSLKTQTWVDMTGARIAYKNWETEITAQPDGGWGYFGENCAVLSGAANGKWFDKRCRDQLPYICQFGIV |

Source: US20110086806A1 (published 2011)
